Numbered stars: 1 amine (or outer) side, 2 acyl side, 3 side chain; on linkers, the order of the positions; unused ones are H or OH. Bridge positions count the residues as written; N and C are the ends. Square brackets hold non-standard residues; d marks the D form. * marks the point of attachment. thioacetal = thioacetal linkage between two cysteines (intrachain bond at the bracketed Cys); C20 diacid = O=C(O)CCCCCCCCCCCCCCCCCCC(=O)*; γGlu = O=C(O)[C@H](CCC(=O)[*:2])N[*:1]; Dap = NC[C@H](N)C(=O)O
What was measured:
[1] = target: T1, human NPRA (human, UniProt P16066 33-1061); test: cell-based or functional assay
T1 sequence (looked up): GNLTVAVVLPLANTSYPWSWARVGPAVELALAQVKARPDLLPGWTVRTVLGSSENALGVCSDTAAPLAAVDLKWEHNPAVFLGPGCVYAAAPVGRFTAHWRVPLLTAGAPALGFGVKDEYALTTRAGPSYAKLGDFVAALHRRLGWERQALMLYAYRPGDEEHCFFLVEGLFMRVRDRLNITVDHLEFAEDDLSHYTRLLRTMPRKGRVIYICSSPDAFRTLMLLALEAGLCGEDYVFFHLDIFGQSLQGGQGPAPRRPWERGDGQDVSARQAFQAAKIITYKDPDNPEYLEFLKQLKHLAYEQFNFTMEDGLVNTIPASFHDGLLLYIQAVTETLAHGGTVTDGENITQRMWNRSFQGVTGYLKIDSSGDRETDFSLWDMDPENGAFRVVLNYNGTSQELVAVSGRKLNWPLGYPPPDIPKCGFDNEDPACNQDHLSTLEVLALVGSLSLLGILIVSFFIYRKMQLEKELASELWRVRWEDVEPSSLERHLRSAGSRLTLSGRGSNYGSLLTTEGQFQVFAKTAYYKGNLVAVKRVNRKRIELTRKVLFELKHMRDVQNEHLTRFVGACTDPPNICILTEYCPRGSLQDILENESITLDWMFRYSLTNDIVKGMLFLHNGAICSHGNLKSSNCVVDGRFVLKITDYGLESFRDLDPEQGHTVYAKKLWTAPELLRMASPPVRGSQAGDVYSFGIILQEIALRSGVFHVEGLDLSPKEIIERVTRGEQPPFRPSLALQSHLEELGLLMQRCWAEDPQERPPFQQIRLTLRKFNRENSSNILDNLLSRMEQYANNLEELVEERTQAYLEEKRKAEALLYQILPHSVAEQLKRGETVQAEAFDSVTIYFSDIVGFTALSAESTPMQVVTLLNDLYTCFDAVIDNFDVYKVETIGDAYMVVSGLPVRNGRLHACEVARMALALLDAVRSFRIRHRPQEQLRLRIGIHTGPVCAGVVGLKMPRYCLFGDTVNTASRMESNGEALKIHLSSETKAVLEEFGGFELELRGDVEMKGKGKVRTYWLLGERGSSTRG

[2] = target: T2, rat NPRA (rat, UniProt P18910 29-1057); test: cell-based or functional assay
T2 sequence (looked up): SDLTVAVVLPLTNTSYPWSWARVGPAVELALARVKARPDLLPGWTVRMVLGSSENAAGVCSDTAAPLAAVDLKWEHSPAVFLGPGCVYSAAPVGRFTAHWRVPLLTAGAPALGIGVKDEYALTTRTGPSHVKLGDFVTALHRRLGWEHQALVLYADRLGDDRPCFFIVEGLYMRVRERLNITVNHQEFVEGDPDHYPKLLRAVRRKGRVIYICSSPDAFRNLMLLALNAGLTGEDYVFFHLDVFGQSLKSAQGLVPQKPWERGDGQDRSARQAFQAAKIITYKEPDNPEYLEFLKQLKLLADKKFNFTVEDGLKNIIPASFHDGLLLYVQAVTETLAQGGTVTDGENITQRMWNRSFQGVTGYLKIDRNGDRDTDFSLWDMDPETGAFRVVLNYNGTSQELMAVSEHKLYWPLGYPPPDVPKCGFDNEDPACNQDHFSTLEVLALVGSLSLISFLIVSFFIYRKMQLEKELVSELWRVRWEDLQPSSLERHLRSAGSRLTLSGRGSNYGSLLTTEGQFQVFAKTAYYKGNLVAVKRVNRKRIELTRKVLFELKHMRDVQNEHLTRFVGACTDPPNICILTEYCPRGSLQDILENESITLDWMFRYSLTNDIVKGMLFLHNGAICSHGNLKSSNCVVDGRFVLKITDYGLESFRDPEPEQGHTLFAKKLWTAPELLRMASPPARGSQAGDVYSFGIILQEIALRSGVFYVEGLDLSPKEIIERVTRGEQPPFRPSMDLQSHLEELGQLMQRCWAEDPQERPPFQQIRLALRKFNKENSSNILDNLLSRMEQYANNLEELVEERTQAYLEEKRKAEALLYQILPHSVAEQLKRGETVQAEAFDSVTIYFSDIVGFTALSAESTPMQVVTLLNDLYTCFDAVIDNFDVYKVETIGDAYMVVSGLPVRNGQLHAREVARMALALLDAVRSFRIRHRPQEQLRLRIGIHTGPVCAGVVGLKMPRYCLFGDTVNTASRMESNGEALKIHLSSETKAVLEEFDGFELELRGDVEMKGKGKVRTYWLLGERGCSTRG

Row | Binder | cGMP Assay (EC50, pM) w/BSA, hNPRA [1] [pM] | cGMP Assay (EC50, pM) w/Casein, hNPRA [1] [pM] | cGMP Assay (EC50, pM) w/BSA, rNPRA [2] [pM] | cGMP Assay (EC50, pM) w/Casein, rNPRA [2] [pM]
1 | {C20 diacid-γGlu}-EKEKEKGEKPRSSCFGG[Dap]IDRIGHQSGLGCPSFRHGSPSSGAPPPS-NH2 (bridge 14-30 via thioacetal) [HOOC-(CH2)18-CO-(γGlu)-EKEKEKGEKPRSS[CFGG-Dap-IDRIGHQSGLGC]PSFRHGSPSSGAPPPS-NH2] | 2.87e+06 | 19700 | 1.73e+06 | 200000
2 | {C20 diacid-γGlu}-EKEKEKGEKPRSSCFGKRIDRIGRYSGLGCPSFRHGSPSSGAPPPS-NH2 (bridge 14-30 via thioacetal) [HOOC-(CH2)18-CO-(γGlu)-EKEKEKGEKPRSS[CFGKRIDRIGRYSGLGC]PSFRHGSPSSGAPPPS-NH2] | 11700 | 692 | 4.18e+06 | 41100

— patent US20240174727A1, “LONG-ACTING NATRIURETIC PEPTIDES AND USES THEREOF” (Eli Lilly and Company, priority 2022, published 2024)
